Experimental data published in patent US20240132624A1 (Ablynx, published 2024).
Substitutions are numbered along the chain they refer to. In names and notes the source's numbering stands.

B1: T026301087 (VHH, name in Kabat numbering)
VHH: EVQLVESGGGVVQPGGSLRLSCAASGFTFSEYDMYWVRQAPGKGLEWVSAISQGGGSTDYADSVKGRFTISRDNSKNTLYLQMNSLRPEDTALYYCAADTLYTSLTWYSYWGQGTLVTVSS
notes: tagless
B2: T026301076 (VHH, name in Kabat numbering)
VHH: B1 VHH with E31S, W107K
notes: tagless
B3: T026301063 (VHH, name in Kabat numbering)
VHH: B1 VHH with G26T, E31S, D33A
notes: tagless
B4: T026301117 (VHH, name in Kabat numbering)
VHH: B1 VHH with D33A, Q53S, W107S
notes: tagless
B5: T026301057 (VHH, name in Kabat numbering)
VHH: B1 VHH with D33A, W107S
notes: tagless
B6: T026301080 (VHH, name in Kabat numbering)
VHH: B1 VHH with E31S, Q53S, W107S
notes: tagless
B7: T026301091 (VHH, name in Kabat numbering)
VHH: B1 VHH with Q53S, W107S
notes: tagless
B8: T026301070 (VHH, name in Kabat numbering)
VHH: B1 VHH with W107S
notes: tagless
B9: T026301098 (VHH, name in Kabat numbering)
VHH: B1 VHH with E31D, D33A, Q53S
notes: tagless; also called T0263018B11 S31D
B10: T026301100 (VHH, name in Kabat numbering)
VHH: B1 VHH with E31S, S104D
notes: tagless
B11: T026301099 (VHH, name in Kabat numbering)
VHH: B1 VHH with Q53S
notes: tagless
B12: T026301069 (VHH, name in Kabat numbering)
VHH: B1 VHH with E31S, W107S
notes: tagless
B13: T026301075 (VHH, name in Kabat numbering)
VHH: B1 VHH with G26T, D33A, Q53S
notes: tagless
B14: T026301192 (bispecific antibody, name in Kabat numbering)
chain: DVQLVESGGGVVQPGGSLRLSCAASGFTFSSYAMYWVRQAPGKGLEWVSAISSGGGSTDYADSVKGRFTISRDNSKNTLYLQMNSLRPEDTALYYCAADTLYTELTWYSYWGQGTLVTVSSGGGGSGGGGSGGGGSGGGGSGGGGSGGGGSGGGGSEVQLVESGGGVVQPGGSLRLSCAASGFTFRSFGMSWVRQAPGKGPEWVSSISGSGSDTLYADSVKGRFTISRDNSKNTLYLQMNSLRPEDTALYYCTIGGSLSRSSQGTLVTVSSA
notes: bispecific ISVD construct; also called T0263018B11(E1D, S100E)-35GS-ALB23002-A
B15: T026301196 (bispecific antibody, name in Kabat numbering)
chain: B14 chain with G26T, S53Q, E104S, W107S
notes: bispecific ISVD construct; also called T0263018B11(E1D, G26T, S52aQ, W100cS)-35GS-ALB23002-A
B16: T026301366 (bispecific antibody, not shown: small tags and cut ends)
chain: B14 chain with D1E, E104S, W107S
notes: tetravalent ISVD construct; also called X-Y-FcRn(W100cS)-35GS-ALB23002
B17: T026301053 (VHH, name in Kabat numbering)
VHH: B1 VHH with G26T, Q53S, W107K
notes: tagless
B18: T026301116 (VHH, name in Kabat numbering)
VHH: B1 VHH with Q53S, S104D, W107K
notes: tagless
B19: T026301062 (VHH, name in Kabat numbering)
VHH: B1 VHH with G26T, E31S, Q53S, S104D
notes: tagless
B20: T026301120 (VHH, name in Kabat numbering)
VHH: B1 VHH with G26T, S104D, W107S
notes: tagless
B21: T026301118 (VHH, name in Kabat numbering)
VHH: B1 VHH with E31S, Q53S, S104D, W107S
notes: tagless
B22: T026301106 (VHH, name in Kabat numbering)
VHH: B1 VHH with G26T, E31S, S104D, W107S
notes: tagless
B23: T026301066 (VHH, name in Kabat numbering)
VHH: B1 VHH with D33A, Q53S, S104D, W107K
notes: tagless
B24: T026301115 (VHH, name in Kabat numbering)
VHH: B1 VHH with G26T, E31S, Q53S, S104D, W107K
notes: tagless
B25: T026301055 (VHH, name in Kabat numbering)
VHH: B1 VHH with G26T, E31S, Q53S, W107K
notes: tagless
B26: T026301101 (VHH, name in Kabat numbering)
VHH: B1 VHH with G26T, E31S, D33A, Q53S, S104D, W107K
notes: tagless
B27: T026301056 (VHH, name in Kabat numbering)
VHH: B1 VHH with G26T, S104D, W107K
notes: tagless
B28: T026301104 (VHH, name in Kabat numbering)
VHH: B1 VHH with D33A, S104D, W107K
notes: tagless
B29: T026301065 (VHH, name in Kabat numbering)
VHH: B1 VHH with G26T, S104D
notes: tagless
B30: T026301114 (VHH, name in Kabat numbering)
VHH: B1 VHH with G26T, D33A, Q53S, S104D, W107K
notes: tagless
B31: T026301108 (VHH, name in Kabat numbering)
VHH: B1 VHH with G26T, D33A, S104D, W107S
notes: tagless
B32: T026301068 (VHH, name in Kabat numbering)
VHH: B1 VHH with E31S, S104D, W107K
notes: tagless
B33: T026301129 (VHH, name in Kabat numbering)
VHH: B1 VHH with S104D, W107K
notes: tagless
B34: T026301130 (VHH, name in Kabat numbering)
VHH: B1 VHH with G26T, Q53S, S104D, W107S
notes: tagless
B35: T026301058 (VHH, name in Kabat numbering)
VHH: B1 VHH with G26T, D33A, S104D, W107K
notes: tagless
B36: T026301077 (VHH, name in Kabat numbering)
VHH: B1 VHH with G26T, W107K
notes: tagless
B37: T026301092 (VHH, name in Kabat numbering)
VHH: B1 VHH with E31S, Q53S, S104D, W107K
notes: tagless
B38: T026301093 (VHH, name in Kabat numbering)
VHH: B1 VHH with G26T, E31S, Q53S, W107S
notes: tagless
B39: T026301095 (VHH, name in Kabat numbering)
VHH: B1 VHH with Q53S, S104D, W107S
notes: tagless
B40: T026301131 (VHH, name in Kabat numbering)
VHH: B1 VHH with G26T, E31S, Q53S, S104D, W107S
notes: tagless

Biological target: T1, human FcRn/b2M (human, UniProt P61769 21-119, biotinylated)
T1 construct: bought recombinant biotinylated protein (ACRO FCM-H82W4 or Immunitrack ITF01); also called hFcRn; hFcRn/hb2M
Assay: SPR pH 6.0

T1 sequence (chain, as listed by the source limits assumed, chain 1 of 2): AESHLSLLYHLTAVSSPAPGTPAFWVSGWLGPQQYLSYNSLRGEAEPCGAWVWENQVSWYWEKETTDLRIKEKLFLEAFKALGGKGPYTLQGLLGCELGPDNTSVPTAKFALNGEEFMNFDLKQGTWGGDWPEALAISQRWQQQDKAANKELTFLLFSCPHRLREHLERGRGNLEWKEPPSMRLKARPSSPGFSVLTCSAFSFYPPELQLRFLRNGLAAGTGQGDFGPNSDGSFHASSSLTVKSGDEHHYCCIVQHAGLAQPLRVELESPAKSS
T1 sequence (P61769 21-119 limits assumed, chain 2 of 2): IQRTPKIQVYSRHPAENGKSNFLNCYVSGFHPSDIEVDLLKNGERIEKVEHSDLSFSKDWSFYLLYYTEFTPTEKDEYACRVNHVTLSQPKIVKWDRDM

| Binder | koff [s⁻¹] |
| --- | --- |
| B1 | 0.0011 |
| B2 | 0.003 |
| B3 | 0.005 |
| B4 | 0.0067 |
| B5 | 0.016 |
| B6 | 0.0051 |
| B7 | 0.0062 |
| B8 | 0.0046 |
| B9 | 0.013 |
| B10 | 0.0039 |

Biological target: T1, human FcRn/b2M
Assay: SPR pH 6.0
Remark: another data set of the same source

| Binder | Kd [nM] |
| --- | --- |
| B1 | 25 |
| B2 | 120 |
| B3 | 62 |
| B4 | 170 |
| B5 | 390 |
| B11 | 30 |
| B6 | 150 |
| B7 | 250 |
| B8 | 150 |
| B9 | 200 |
| B10 | 140 |

Biological target: T2, cyno FcRn/b2M (cyno, UniProt Q8SPV9 24-297; Q8SPW0 21-119, biotinylated)
T2 construct: bought recombinant biotinylated protein (Immunitrack ITF05 or ACRO FCM-C82W5); also called cFcRn; cFcRn/cb2M
Assay: SPR pH 6.0

T2 sequence (Q8SPV9 24-297 limits assumed, chain 1 of 2): as the sequence (chain, as listed by the source limits assumed, chain 1 of 2) above, with N39D, E44Q, G99S, S189G, S190N, L217M, S269T counted along it
T2 sequence (Q8SPW0 21-119 limits assumed, chain 2 of 2): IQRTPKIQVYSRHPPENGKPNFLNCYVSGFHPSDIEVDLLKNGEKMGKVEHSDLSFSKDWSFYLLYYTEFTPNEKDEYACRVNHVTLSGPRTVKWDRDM

| Binder | Kd [nM] |
| --- | --- |
| B1 | 20 |
| B2 | 37 |
| B3 | 41 |
| B4 | 110 |
| B5 | 260 |
| B12 | 23 |
| B6 | 130 |
| B7 | 160 |
| B8 | 140 |
| B9 | 140 |
| B10 | 98 |
| B13 | 21 |

Biological target: T1, human FcRn/b2M
Assay: SPR pH 7.4

| Binder | Kd [µM] |
| --- | --- |
| B13 | 5.6 |

Biological target: T2, cyno FcRn/b2M
Assay: SPR pH 7.4

| Binder | Kd [µM] |
| --- | --- |
| B13 | 3.1 |

Biological target: T1, human FcRn/b2M
Assay: SPR pH 6.0
Remark: another data set of the same source
Procedure: (§1) The affinity of the purified, multivalent ISVD constructs for human and cyno FcRn was determined on the MASS-2 (Sierra sensors, Gmbh) instrument, hFcRn/hb2M and cFcRn/cb2M was captured on a Biotin-tag Capture Chip or a High Capacity Amine Chip (pre-immobilized with neutravidin). The ISVD constructs were injected at 6 different concentrations (between 1 and 4000 nM) and allowed to associate for 120 s at 45 μL/min and dissociate for 600 s-3600 s at 45 μL/min. […] Evaluation of the sensorgrams was based on the 1:1 Langmuir dissociation model simultaneously fitting on and off-rates.

| Binder | Kd [nM] |
| --- | --- |
| B14 | 250 |
| B15 | 1000 |

Biological target: T2, cyno FcRn/b2M
Assay: SPR pH 6.0
Remark: another data set of the same source
Procedure: as §1

| Binder | Kd [nM] |
| --- | --- |
| B14 | 140 |
| B15 | 510 |

Biological target: T2, cyno FcRn/b2M
Assay: SPR pH 7.4
Remark: another data set of the same source
Procedure: as §1

| Binder | Kd [nM] |
| --- | --- |
| B14 | 480 |

Biological target: T2, cyno FcRn/b2M
Assay: SPR pH 6.0
Remark: another data set of the same source
Procedure: as §1

| Binder | Kd [nM] |
| --- | --- |
| B16 | 180 |

Biological target: T3, human serum albumin (human, UniProt P02768 25-609)
T3 construct: also called HSA
Assay: SPR pH 6.0
Procedure: (§2) The affinity of the purified, multivalent ISVD constructs for human and mouse serum albumin (HSA and MSA, respectively) was determined on the ProteOn XPR36 (BioRad Laboratories, Inc.) instrument. […] The ISVD constructs were injected at 6 different concentrations (between 1 and 500 nM) and allowed to associate for 120 s at 45 μL/min and dissociate for 600s-3600s at 45 μL/min. Evaluation of the sensorgrams was based on the 1:1 Langmuir dissociation model simultaneously fitting on and off-rates.

| Binder | Kd [nM] |
| --- | --- |
| B14 | 5.7 |
| B15 | 7.4 |

Biological target: T4, mouse serum albumin (mouse, UniProt P07724 25-608)
T4 construct: also called MSA
Assay: SPR pH 6.0
Procedure: as §2

T4 sequence (P07724 25-608 limits assumed): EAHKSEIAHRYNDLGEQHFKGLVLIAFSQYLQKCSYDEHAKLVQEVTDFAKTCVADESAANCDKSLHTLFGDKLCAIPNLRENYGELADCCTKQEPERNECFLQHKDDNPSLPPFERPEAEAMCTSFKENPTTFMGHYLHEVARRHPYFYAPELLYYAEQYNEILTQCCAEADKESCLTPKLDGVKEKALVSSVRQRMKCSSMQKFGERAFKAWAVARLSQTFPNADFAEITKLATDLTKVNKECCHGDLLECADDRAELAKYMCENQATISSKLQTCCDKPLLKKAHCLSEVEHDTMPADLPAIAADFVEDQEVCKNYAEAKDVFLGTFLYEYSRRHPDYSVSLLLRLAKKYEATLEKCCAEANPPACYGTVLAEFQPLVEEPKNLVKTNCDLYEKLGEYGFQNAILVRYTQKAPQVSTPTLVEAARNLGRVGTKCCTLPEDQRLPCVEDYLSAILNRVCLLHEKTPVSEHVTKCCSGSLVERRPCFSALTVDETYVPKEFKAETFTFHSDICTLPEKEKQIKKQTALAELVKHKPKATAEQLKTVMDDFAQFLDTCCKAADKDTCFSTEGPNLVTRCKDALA

| Binder | Kd [nM] |
| --- | --- |
| B14 | 64 |
| B15 | 89 |

Biological target: T3, human serum albumin
Assay: SPR pH 7.4
Procedure: as §2

| Binder | Kd [nM] |
| --- | --- |
| B14 | 12 |
| B15 | 15 |

Biological target: T4, mouse serum albumin
Assay: SPR pH 7.4
Procedure: as §2

| Binder | Kd [nM] |
| --- | --- |
| B14 | 87 |
| B15 | 120 |

Biological target: T3, human serum albumin
Assay: SPR pH 6.0
Remark: another data set of the same source
Procedure: as §2

| Binder | Kd [nM] |
| --- | --- |
| B16 | 10 |

Biological target: T3, human serum albumin
Assay: SPR pH 7.4
Remark: another data set of the same source
Procedure: as §2

| Binder | Kd [nM] |
| --- | --- |
| B16 | 7.5 |

Biological target: T1, human FcRn/b2M
Assay: SPR off-rate pH 6.0

| Binder | binding result |
| --- | --- |
| B17 | no binding |
| B18 | no binding |
| B19 | no binding |
| B20 | no binding |
| B21 | no binding |
| B22 | no binding |
| B23 | no binding |
| B24 | no binding |
| B25 | no binding |
| B26 | no binding |
| B27 | no binding |
| B28 | no binding |
| B29 | no binding |
| B30 | no binding |
| B31 | no binding |
| B32 | no binding |
| B33 | no binding |
| B34 | no binding |
| B35 | no binding |
| B36 | no binding |
| B37 | no binding |
| B38 | no binding |
| B39 | no binding |
| B40 | no binding |
